Results reported in US20170189505A1.

Target: HLA-A*24 (human)
Experiment: UV peptide exchange, anti-b2m ELISA

Row | Binder | peptide exchange yield
1 | TYSVSFPMF [SEQ ID No 195 peptide …] | > 75%
2 | EYSLFPGQVVI [SEQ ID No 197 peptide …] | 50 to 75%
3 | KYQDILETI [SEQ ID No 168 peptide …] | > 75%
4 | QYLENLEKL [SEQ ID No 224 peptide …] | 50 to 75%
5 | KYMVYPQTF [SEQ ID No 267 peptide …] | > 75%
6 | EYINQGDLHEF [SEQ ID No 275 peptide …] | 50 to 75%
7 | EFGSLHLEFL [SEQ ID No 194 peptide …] | < 20%
8 | IYDDSFIRPVTF [SEQ ID No 180 peptide …] | 50 to 75%
9 | SYALLTYMI [SEQ ID No 192 peptide …] | > 75%
10 | VFQNFPLLF [SEQ ID No 184 peptide …] | > 75%
11 | LFIPSSKLLFL [SEQ ID No 171 peptide …] | 50 to 75%
12 | IFPQFLYQF [SEQ ID No 186 peptide …] | > 75%
13 | VYGFQWRHF [SEQ ID No 276 peptide …] | > 75%
14 | KFVDSTFYL [SEQ ID No 282 peptide …] | > 75%
15 | MYDSYWRQF [SEQ ID No 179 peptide …] | > 75%
16 | IFIEVFSHF [SEQ ID No 178 peptide …] | 50 to 75%
17 | YYVESGKLF [SEQ ID No 166 peptide …] | > 75%
18 | VYEDQVGKF [SEQ ID No 170 peptide …] | 20 to 49%
19 | LYNKGFIYL [SEQ ID No 159 peptide …] | > 75%
20 | IYKVGAPTI [SEQ ID No 185 peptide …] | 50 to 75%
21 | EYNQWFTKL [SEQ ID No 176 peptide …] | 50 to 75%
22 | WYVNGVNYF [SEQ ID No 189 peptide …] | 20 to 49%
23 | RYLNKAFHI [SEQ ID No 284 peptide …] | 50 to 75%
24 | VYVGGGQIIHL [SEQ ID No 174 peptide …] | 50 to 75%
25 | RYFKGLVF [SEQ ID No 188 peptide RYFKGLVF] | 50 to 75%

Row | Binder | peptide exchange yield
26 | EYPLVINTL [SEQ ID No 219 peptide …] | 50 to 75%
27 | AYLHSHALI [SEQ ID No 274 peptide …] | > 75%
28 | TYIKPISKL [SEQ ID No 273 peptide …] | 50 to 75%
29 | VFTSTARAF [SEQ ID No 183 peptide …] | 50 to 75%
30 | IYSWILDHF [SEQ ID No 173 peptide …] | > 75%
31 | YYLEVGKTLI [SEQ ID No 211 peptide …] | > 75%
32 | VYPWLGALL [SEQ ID No 177 peptide …] | > 75%
33 | GFFIFNERF [SEQ ID No 190 peptide …] | 50 to 75%
34 | YFDKVVTL [SEQ ID No 215 peptide YFDKVVTL] | 20 to 49%
35 | LYIDRPLPYL [SEQ ID No 196 peptide …] | 50 to 75%
36 | RFHPTPLLL [SEQ ID No 193 peptide …] | > 75%
37 | FYSRLLQKF [SEQ ID No 203 peptide …] | 50 to 75%
38 | QYLQDAYSF [SEQ ID No 272 peptide …] | > 75%
39 | LYLDIINLF [SEQ ID No 181 peptide …] | > 75%
40 | LYLKLWNLI [SEQ ID No 214 peptide …] | 50 to 75%
41 | VYVSDIQEL [SEQ ID No 288 peptide …] | 50 to 75%
42 | TYTTVPRVAF [SEQ ID No 172 peptide …] | > 75%
43 | IYLVSIPEL [SEQ ID No 161 peptide …] | > 75%
44 | TYIESASEL [SEQ ID No 279 peptide …] | 50 to 75%
45 | NYINRILKL [SEQ ID No 167 peptide …] | > 75%
46 | TYGDAGLTYTF [SEQ ID No 283 peptide …] | 50 to 75%
47 | TYTQDFNKF [SEQ ID No 208 peptide …] | 50 to 75%
48 | QYSSVFKSL [SEQ ID No 216 peptide …] | > 75%
49 | IFLDYEAGTLSF [SEQ ID No 227 peptide …] | > 75%
50 | YYVYIMNHL [SEQ ID No 225 peptide …] | 50 to 75%

Row | Binder | peptide exchange yield
51 | RYPDNLKHL [SEQ ID No 286 peptide …] | 20 to 49%
52 | YYEVHKELF [SEQ ID No 175 peptide …] | > 75%
53 | IYTMIYRNL [SEQ ID No 210 peptide …] | > 75%
54 | HYSQELSLLYL [SEQ ID No 158 peptide …] | > 75%
55 | AYTLIAPNI [SEQ ID No 169 peptide …] | 50 to 75%
56 | VYTLDIPVL [SEQ ID No 160 peptide …] | > 75%
57 | KYPVEWAKF [SEQ ID No 289 peptide …] | > 75%
58 | TYLRDQHFL [SEQ ID No 187 peptide …] | > 75%
59 | FFPPTRQMGLLF [SEQ ID No 217 peptide …] | > 75%
60 | RYISDQLFTNF [SEQ ID No 278 peptide …] | > 75%
61 | KYTSWYVAL [SEQ ID No 228 peptide …] | > 75%
62 | EYQENFLSF [SEQ ID No 206 peptide …] | 50 to 75%
63 | DYTTWTALL [SEQ ID No 165 peptide …] | > 75%
64 | RYSTGLAGNLL [SEQ ID No 221 peptide …] | 50 to 75%
65 | VFTRVSSFL [SEQ ID No 162 peptide …] | 50 to 75%
66 | DYLKGLASF [SEQ ID No 163 peptide …] | > 75%
67 | KYIPYKYVI [SEQ ID No 223 peptide …] | 50 to 75%
68 | VFKASKITF [SEQ ID No 191 peptide …] | 50 to 75%
69 | RYPDNLKHLYL [SEQ ID No 280 peptide …] | > 75%
70 | KFSSFSLFF [SEQ ID No 164 peptide …] | 50 to 75%
71 | VYRDETGELF [SEQ ID No 226 peptide …] | 50 to 75%
72 | LYHDIFSRL [SEQ ID No 271 peptide …] | > 75%
73 | VHIPEVYLI [SEQ ID No 205 peptide …] | 50 to 75%
74 | LYLDKATLI [SEQ ID No 198 peptide …] | 50 to 75%
75 | IYQLDTASI [SEQ ID No 182 peptide …] | 50 to 75%
